The chains are these.
B1: CPEB3 Ribozyme (parent)
chain: GGGGGCCACAGCAGAAGCGUUCACGUCGCGGCCCCUGUCAGAUUCUGGUGAAUCUGCGAAUUCUGCUGU

The variants in this data set derive from B1. Kind of data set: self-cleavage, relative activity (ratio to wild type); higher = more cleavage; co-transcriptional.
In the case of U43G C57U, the self-cleavage was 0.385.

On to U43G C57G, for which the self-cleavage came out at 0.308. Next, U44A G48C: 1.01; U44A G48U: 0.982.

Take G41A U55C: the self-cleavage is 0.491. For the variant U43A A51C, the self-cleavage amounted to 0.933.

Turning to G41A C45G, the self-cleavage is 0.537.

As to G41A C45A, the self-cleavage turned out to be 0.37. Next, A42U C63A: 0.608; A42U C63G: 0.533; A42C G58A: 0.925. Consider A42C G58U, for which the self-cleavage stood at 1.01.

On to U44A C66A, for which the self-cleavage stood at 0.758.

In the case of G41C C63G, the self-cleavage turned out to be 0.382. Next, G41C C63U: 0.685; G41C C57G: 0.249. Turning to G41C C57A, the self-cleavage was found to be 0.285. With G41A U67C, the self-cleavage came out at 0.818. Regarding U43A U61A, the self-cleavage stood at 0.651. For U43A U61G, the self-cleavage stood at 0.485. For U43C G58C, the self-cleavage is 0.936.

Take A40G U64G: the self-cleavage stood at 0.796. In the case of A40G U64C, the self-cleavage was 0.737.

For the variant U43A U67G, the self-cleavage came to 0.889. Next, G41A G50C: 0.453. Take G41A G50U: the self-cleavage amounted to 0.686.

On to G41U A51C, for which the self-cleavage worked out at 0.588.

As to U44A U46C, the self-cleavage was 0.993. Next, U44A U46G: 0.981; G41C U64C: 0.394; A42U U67C: 0.947. With A40U A59C, the self-cleavage is 0.285.

On to U44A C63G, for which the self-cleavage is 0.645. Next, U44A C63U: 0.985; G41C U62A: 0.294. Consider U43A A59U, for which the self-cleavage came to 0.579. Next, U43A A59C: 0.573; U43A A59G: 0.782. Take U43G U61G: the self-cleavage amounted to 0.265. Next, U43G U61A: 0.701; A42U G47A: 0.957.

For A42U U44C, the self-cleavage stood at 0.913.

Consider A42U U44G, for which the self-cleavage turned out to be 0.859. For U43C C54A, the self-cleavage is 0.734. A42U C57A: the self-cleavage worked out at 0.379. Next, A42U C57G: 0.298; G41A C66U: 0.756; G41A C66A: 0.388. U43C U62G: the self-cleavage was determined as 0.783. Next, U44A G47U: 1; U44A G47A: 1.01; U43A C54U: 0.771.

With G41U U53A, the self-cleavage stood at 0.616. Next, A40U U44A: 0.609; A42G G58U: 0.978. Next, A42G A60C: 0.405; A42G A60U: 0.329. On to U43C U53G, for which the self-cleavage is 0.978. Next, U43C U53C: 0.855; U43A C66G: 0.572; A42U U69G: 1.01. Next, A42G G48A: 0.979. Next, U43C C45G: 0.964; U43C C45A: 0.961; A42G G47C: 0.941. On to G41U G65C, for which the self-cleavage was 0.272. A42C C63U: the self-cleavage was found to be 0.926.

For A40U G58U, the self-cleavage came out at 0.931. Turning to A40U G58A, the self-cleavage turned out to be 0.797.

For A40U G58C, the self-cleavage came to 0.881. As to G41A A42U, the self-cleavage was 0.49.

A42C C54A: the self-cleavage was determined as 0.707. Next, A42C C54U: 0.822; G41C A52U: 0.415. G41C A52G: the self-cleavage amounted to 0.609.

Turning to A42C G48U, the self-cleavage came out at 0.988. Next, A42C G48A: 0.965; A42C G48C: 0.851. Consider U43G U69C, for which the self-cleavage was determined as 1.03.

As for U43G U69A, the self-cleavage was found to be 0.954. Next, G41A G47U: 0.98; G41A G47A: 0.979; G41U A60C: 0.414.

For G41U C57A, the self-cleavage turned out to be 0.303. Next, G41U C57U: 0.243; G41U C57G: 0.328; U43G U62C: 0.437. Next, U43G U62A: 0.529.

For A42G U46C, the self-cleavage worked out at 0.965.

As for A42C A60C, the self-cleavage amounted to 0.503. Next, A42C A60G: 0.771; U43C U55G: 0.388; A40U G47U: 0.912. Next, A40U G47A: 0.885; A42C A51C: 0.832. Take A42C A51U: the self-cleavage came to 0.952.

G41U G56U: the self-cleavage is 0.343.

As to G41U G56C, the self-cleavage turned out to be 0.357. Next, A42C U53G: 1.04. Consider A42C U53C, for which the self-cleavage stood at 0.939. As to G41C U49G, the self-cleavage was 0.899.

As to U44A G50A, the self-cleavage came out at 0.962.

Turning to G41A G65A, the self-cleavage is 0.482.

As for U43G U53C, the self-cleavage came out at 0.874. Next, G41A U46G: 0.904. With A42C U64C, the self-cleavage was found to be 0.637. Take G41A U43G: the self-cleavage was determined as 0.241. As to U44A G58A, the self-cleavage came to 0.963.

Take U44A G58U: the self-cleavage worked out at 0.951.

As for A42G G56U, the self-cleavage was 0.567. Next, A42U G58U: 0.965; G41A A60G: 0.464; G41A G58C: 0.86.

Regarding G41A G58A, the self-cleavage amounted to 0.906.

As to G41A G58U, the self-cleavage was 0.921. Turning to G41A C63A, the self-cleavage came out at 0.329. As to U43A G48C, the self-cleavage is 0.912. For U44A C45A, the self-cleavage was found to be 0.886.

Consider G41U G50A, for which the self-cleavage came out at 0.704. In the case of G41U G50U, the self-cleavage came to 0.845. Next, G41A: 0.906. Next, G41U: 0.928; G41C: 0.891; A42G G50A: 0.88. Next, A42G G50C: 0.789. For the variant G41C G56C, the self-cleavage was 0.417. As to G41U A42G, the self-cleavage turned out to be 0.777. Take G41U A42U: the self-cleavage is 0.862. Next, G41U A42C: 0.389.

As to A42C G47C, the self-cleavage amounted to 0.977. Next, A42C G47U: 0.958; A42G C57A: 0.306. Consider A42G C57G, for which the self-cleavage was 0.276. Next, A42C C66A: 0.57; G41C U46C: 0.63. Next, G41C U46G: 0.855; A40U U53G: 0.378; A40U U53A: 0.302.

Consider A42C U49C, for which the self-cleavage is 0.892. Next, G41U A59U: 0.453; U43G C54U: 0.662. Next, A42C G56A: 0.812; A42U U43G: 0.735. Next, A42U U43C: 0.77; G41U U62G: 0.391; A42G U69A: 1.01. G41A U61C: the self-cleavage worked out at 0.257. With A40U G41C, the self-cleavage came to 0.592. Next, A40U G41U: 0.664; A42C G50U: 0.932; U44A U49C: 0.922.

Consider U43C G50C, for which the self-cleavage came to 0.915. Next, U43C G50U: 0.99; A40U U64C: 0.388. Next, A42G U55G: 0.335; U43C A51G: 0.964. Turning to U43C A51U, the self-cleavage was 0.944.

Consider U43G U44G, for which the self-cleavage was determined as 0.83.

As for U43G U64G, the self-cleavage turned out to be 0.649. Turning to A42G A52G, the self-cleavage turned out to be 0.825.

In the case of G41C A59U, the self-cleavage worked out at 0.271. With G41U U69C, the self-cleavage was 0.697. Next, G41A G68A: 0.979; A42U A51G: 0.933; G41C G48A: 0.949. For G41A G48U, the self-cleavage came out at 0.987. Next, G41A G48C: 0.876.

(Values after the RNAGym collection of RNA variant scans (doi:10.7554/elife.80360).)
